Measured values from IntAct's records for PubMed 16407074.

B1: Mortality factor 4-like protein 1 (Homo sapiens), Q9UBU8-2 (parent)
chain: MAPKQDPKPKFQEGERVLCFHGPLLYEAKCVKVAIKDKQVKYFIHYSGWNKNWDEWVPESRVLKYVDTNLQKQRELQKANQEQYAEGKMRGAAPGKKTSGLQQKNVEVKTKKNKQKTPGNGDGGSTSETPQPPRKKRARVDPTVENEETFMNRVEVKVKIPEELKPWLVDDWDLITRQKQLFYLPAKKNVDSILEDYANYKKSRGNTDNKEYAVNEVVAGIKEYFNVMLGTQLLYKFERPQYAEILADHPDAPMSQVYGAPHLLRLFVRIGAMLAYTPLDEKSLALLLNYLHDFLKYLAKNSATLFSASDYEVAPPEYHRKAV

Variants of: B1
Conditions: with mr1l1_human MRFAP1L1, Q96HT8
Sequence of mr1l1_human MRFAP1L1, Q96HT8 (Q96HT8 whole entry): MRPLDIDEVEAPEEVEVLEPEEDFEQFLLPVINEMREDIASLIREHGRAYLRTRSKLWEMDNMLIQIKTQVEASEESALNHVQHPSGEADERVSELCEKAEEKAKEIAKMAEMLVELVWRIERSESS

| Variant | effect of a mutation on the interaction |
| --- | --- |
| V169E | disrupting interaction |

Variants of: B1
Conditions: with mrgbp_human MRGBP

| Variant | effect of a mutation on the interaction |
| --- | --- |
| L291A | disrupting interaction strength |
